Assay results: PMC10807245, “A functional and structural comparative analysis of large tumor antigens reveals evolution of different importin α‐dependent nuclear localization signals” (Protein Science : A Publication of the Protein Society, 2024)
Primed or numbered codes have the meaning given here. Where no end group is shown, it is not given here. FITC′ = fluorescein isothiocyanate; Ahx = NCCCCCC(=O)O

T1: human importin α3 lacking the IBB domain (IMPα3ΔIBB) (human, UniProt O00629 64-521)
T1 sequence (looked up): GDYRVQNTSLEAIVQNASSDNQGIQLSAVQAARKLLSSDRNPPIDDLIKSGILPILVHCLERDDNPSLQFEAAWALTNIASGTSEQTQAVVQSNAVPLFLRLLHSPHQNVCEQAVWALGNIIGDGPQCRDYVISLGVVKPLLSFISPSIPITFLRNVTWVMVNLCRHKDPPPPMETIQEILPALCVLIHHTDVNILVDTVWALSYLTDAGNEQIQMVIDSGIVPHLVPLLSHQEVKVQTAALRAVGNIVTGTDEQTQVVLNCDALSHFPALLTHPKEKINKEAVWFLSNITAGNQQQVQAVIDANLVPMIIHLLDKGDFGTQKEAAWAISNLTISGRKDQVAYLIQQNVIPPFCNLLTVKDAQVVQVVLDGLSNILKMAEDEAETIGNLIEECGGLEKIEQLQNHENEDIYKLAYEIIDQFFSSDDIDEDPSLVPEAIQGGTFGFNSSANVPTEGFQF


Legend:
Conditions in all cases: both partners purified
[1] = target: T2, mouse importin α2 lacking the IBB domain (IMPα2ΔIBB) (mouse, UniProt P52293 70-529); assay: native gel or EMSA; 1.5% agarose gel in TB buffer (0.45 mM tris, 0.45 mM boric acid, pH 8.5), 70 V for 2 h; IMPαΔIBB ± FITC-cNLS peptide; UV image for the peptide, Coomassie for the protein
[2] = target: T3, human importin α1 lacking the IBB domain (IMPα1ΔIBB) (human, UniProt P52292 70-529); assay: as above
[3] = target: T1, human importin α3 lacking the IBB …; assay: as above
[4] = target: human importin α5 lacking the IBB domain (IMPα5ΔIBB) (human, UniProt P52294 73-538); assay: as above
human importin α5 lacking the IBB domain (IMPα5ΔIBB), sequence (P52294 73-538, stated change not applied): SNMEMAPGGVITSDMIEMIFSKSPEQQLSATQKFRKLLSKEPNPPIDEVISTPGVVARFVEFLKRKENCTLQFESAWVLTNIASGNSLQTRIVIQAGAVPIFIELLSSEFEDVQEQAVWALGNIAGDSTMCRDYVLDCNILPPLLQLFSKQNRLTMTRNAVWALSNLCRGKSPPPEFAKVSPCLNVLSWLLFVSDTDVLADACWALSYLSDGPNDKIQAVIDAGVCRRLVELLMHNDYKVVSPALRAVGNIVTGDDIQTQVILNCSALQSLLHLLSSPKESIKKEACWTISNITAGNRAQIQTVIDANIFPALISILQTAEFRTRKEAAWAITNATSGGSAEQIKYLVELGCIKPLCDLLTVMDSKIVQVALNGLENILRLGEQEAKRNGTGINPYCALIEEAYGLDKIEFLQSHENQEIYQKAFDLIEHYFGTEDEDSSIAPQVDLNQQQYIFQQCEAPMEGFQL

[5] = target: human importin α7 lacking the IBB domain (IMPα7ΔIBB) (human, UniProt O60684 73-536); assay: as above
human importin α7 lacking the IBB domain (IMPα7ΔIBB), sequence (O60684 73-536, stated change not applied): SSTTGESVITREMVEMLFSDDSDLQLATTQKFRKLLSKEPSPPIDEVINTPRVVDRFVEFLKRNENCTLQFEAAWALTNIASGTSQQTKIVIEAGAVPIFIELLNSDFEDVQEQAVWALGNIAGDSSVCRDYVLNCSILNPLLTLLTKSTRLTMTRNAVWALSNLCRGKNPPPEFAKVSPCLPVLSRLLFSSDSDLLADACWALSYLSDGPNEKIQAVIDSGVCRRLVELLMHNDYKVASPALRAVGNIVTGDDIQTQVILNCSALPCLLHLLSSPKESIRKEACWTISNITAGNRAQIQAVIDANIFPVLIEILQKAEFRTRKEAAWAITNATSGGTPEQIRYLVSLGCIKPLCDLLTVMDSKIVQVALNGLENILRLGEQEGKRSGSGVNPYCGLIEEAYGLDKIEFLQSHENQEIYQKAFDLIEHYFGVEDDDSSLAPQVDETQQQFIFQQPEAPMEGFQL

[6] = target: T2, mouse importin α2 lacking the IBB …; assay: crystal structure
[7] = target: T3, human importin α1 lacking the IBB …; assay: fluorescence polarisation; two-fold dilutions of IMPαΔIBB titrated against FITC-cNLS peptide in tris-buffered saline, 200 μL; one site specific binding fit; triplicate

Row | Binder | binding result [1] | binding result [2] | binding result [3] | binding result [4] | binding result [5] | binding result [6] | Kd [7]
1 | {FITC′}-PFSRKRKFGGS [MCPyV LTA NLSm peptide] | binds | – | – | – | – | – | –
2 | {FITC′-Ahx}-KRSAPEEEPSCSQATPPKKKHA (also called KIPyV LTA cNLS; KIPyV LTA bipartite cNLS) [KIPyV LTA NLSbip peptide] | binds | binds | binds | binds | binds | – | –
3 | {FITC′-Ahx}-KRKFPDSSTQNSTPPKKNKPA (also called STLPyV LTA cNLS; STLPyV LTA bipartite cNLS) [STLPyV LTA NLSbip peptide] | binds | binds | binds | binds | binds | – | –
4 | {FITC′-Ahx}-KRTREDDEEPQCSQATPPKKKKD (also called WUPyV LTA cNLS; WUPyV LTA bipartite cNLS) [WUPyV LTA NLSbip peptide] | binds | binds | binds | binds | binds | – | –
5 | {FITC′-Ahx}-MFASDDENTGSQHSTPPKKKKKV (also called JCPyV LTA cNLS; JCPyV LTA monopartite cNLS) [JCPyV LTA NLS peptide] | – | – | binds | binds | binds | binds | 76 to 270 nM
6 | {FITC′-Ahx}-PKKRPRESSSNSTCTPPKRPRNF (also called MWPyV LTA cNLS; MWPyV LTA bipartite cNLS) [MWPyV LTA NLSbip peptide] | binds | binds | binds | binds | binds | – | –
7 | {FITC′-Ahx}-PFSRKRKFGGSRSSASSASSASFTSTPPKPKKNRE (also called MCPyV LTA cNLS; bipartite MCPyV LTA NLS; source: synthetic peptide (solid phase, HPLC purified)) [MCPyV LTA NLSbip peptide] | binds | binds | binds | binds | binds | – | –
